{
  "source": "the nanobody polyreactivity screen of Harvey et al. (2022)",
  "data": [
    {"test": "yeast display, Sf9 membrane polyspecificity reagent, FACS + sequencing; frameworks hold sequencing errors", "how_it_was_run": "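A nanobody's polyreactivity label depends on the gate it was sorted from. Yeast display cells were stained with 10% biotinylated, detergent-solubilized Sf9 membrane reagent for 1 hour at 4 °C, enriched on streptavidin microbeads and sorted by FACS. The low and high (top ~1%) gates were set on anti-HA fluorescence for expression and streptavidin fluorescence for reagent binding.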", "values": [
      {"sequence": "QVQLVESGGGLVQAGGSLRLSCAASGSIFHWYAMGWYRQAPGKERELVAAISWSGGSTYYADSVKGRFTISRDNAKNTVYLQRNSLKPEDTAVYYCNKYIRYPFKRYGYWGQGTQVTVSS", "polyreactivity (PSR sort gate)": "high polyreactivity"},
      {"sequence": "QVQLVESGGGLVQAGGSLRLSCAASGSIFHYNAMGWYRQAPGKERELVAAITTSGGSTYYADSVKGRFTISRDNAKNTVYLQMNSLKPEDTAVYYCAADLVWTRYFGYAPDYYIEFDYWGQGTQVTVSS", "polyreactivity (PSR sort gate)": "high polyreactivity"},
      {"sequence": "QVQLVESGGGLVQAGGSLRLSCAASGSIFHYYAMGWYRQAPGKERELVAAISWSGGRTYYADSVKGRFTISRDNAKNTVYLQMNSLKPEDTAVYYCAADYDGSFNTPYLLDPYDYWGQGTQVTVSS", "polyreactivity (PSR sort gate)": "high polyreactivity"},
      {"sequence": "QVQLVESGGGLVQAGGSLRLSCAASGSIFIAYGMGWYRQEPGKERELVAAITVSGGNTYYADSVKGRFTISRDNAKNTVYLQMYSLKPEDTAVYYCADVTYWQDGHRGNYWGQGTQVTVSS", "polyreactivity (PSR sort gate)": "low polyreactivity"},
      {"sequence": "QVQLVESGGGLVQAGGSLRLSCAASGSIFIDNAMGWYIQAPGKEREFVAAISKSGTSTYYADSVNGRFTISRDNAMNAVDLQMNSLKPEDTAVYYCAVRRPRPYSNYYYWGQGTQVTVSS", "polyreactivity (PSR sort gate)": "high polyreactivity"},
      {"sequence": "QVQLVESGGGLVQAGGSLRLSCAASGSIFIDYAMGWYRQAPGKERELVATISNSGTSTYYADSVKGRFTISRDNAKNTVYLQMNSLKPEDTAVYYCAAEAWPYGDYYWGQGTQVTVSS", "polyreactivity (PSR sort gate)": "low polyreactivity"},
      {"sequence": "QVQLVESGGGLVQAGGSLRLSCAASGSIFIGNTMGWYRQAPGKERELVATIRRSGSRTYDADSVKGRFTISRDNAKNTVYLQMNSLKPEDTAVYYCAADRLRTSGYKTIYDYWGQGTQVTVSS", "polyreactivity (PSR sort gate)": "low polyreactivity"},
      {"sequence": "QVQLVESGGGLVQAGGSLRLSCAASGSIFIGNTMGWYRQAPGKERELVATIRRSGSRTYYADSVKGRFTISRDNAKNTVYLQLNSLKPEDTAVYYCAADRLRSSGYKTIYDYWGQGTQVTVSS", "polyreactivity (PSR sort gate)": "low polyreactivity"},
      {"sequence": "QVQLVESGGGLVQAGGSLRLSCAASGSIFIGYAMGWNRQAPGKERELVAGISSNGGTTYYADSVKGRFTISRDNAKNTVYLQMNSLKPEDTAVYYCATQYYARGYLYDYWGHGTQVTVSS", "polyreactivity (PSR sort gate)": "low polyreactivity"},
      {"sequence": "QVQLVESGGGLVQAGGSLRLSCAASGSIFILNAMGWYRQAPGKERELGAAISWSGGRTNYADSVKGRFTISRDNAKNPVYLHMNSLKPEDTAVYYCAARVTPYRGFYYWGQGTQVTVSS", "polyreactivity (PSR sort gate)": "high polyreactivity"},
      {"sequence": "QVQLVESGGGLVQAGGSLRLSCAASGSIFINNTMGWYRQAPGKERELVAAISITGGSTYYADSVKGRFTISRDNAKNTVYLQMNSLKPEDTAVYYCAADPLQLYDYNYWGQGTQVTVSS", "polyreactivity (PSR sort gate)": "low polyreactivity"},
      {"sequence": "QVQLVESGGGLVQAGGSLRLSCAASGSIFISYAMGWYRQAPGKERELVAAINSGGSTNYADSVKGRFTISRDNAKNTVYLQMNSLKPEDTAVYYCAVDGYFFQGPYYYWGQGTQVTVSS", "polyreactivity (PSR sort gate)": "low polyreactivity"},
      {"sequence": "QVQLVESGGGLVQAGGSLRLSCAASGSIFITYAMGWYRQAPGKERELVAAIRDSGDRTYYADSVKGRFTISRDNAKKTVYLQMNSLKPEDTAVYYCNARWQEPLKYDYWGQGTQVTVSS", "polyreactivity (PSR sort gate)": "low polyreactivity"},
      {"sequence": "QVQLVESGGGLVQAGGSLRLSCAASGSIFIYNAMGWYRQAPGKERELVAAINWTGGSTYYADSVKGRFTISRDNAKNTVYLQMNSMKPEDTAVYYCNALRYGSTRGYDYWGQGSQVTVSS", "polyreactivity (PSR sort gate)": "high polyreactivity"},
      {"sequence": "QVQLVESGGGLVQAGGSLRLSCAASGSIFIYNVMGWYRQAPGKERELVATIRGSGGSTYYADSVKGRFTISRDNAQNTVYLQMNSLKPEDTAVYYCARRDYPVQWGRAYNYWGQGTQVTVSS", "polyreactivity (PSR sort gate)": "high polyreactivity"},
      {"sequence": "QVQLVESGGGLVQAGGSLRLSCAASGSIFIYYAMGWYRQAPGKERELVAAISSSGDSTNYADSVKGRFTISRDNAKNTVYLQMNSLKPEDTAVYYCAADPYYFYIWYWWPSFDYWGQGTQVTVSS", "polyreactivity (PSR sort gate)": "low polyreactivity"},
      {"sequence": "QVQLVESGGGLVQAGGSLRLSCAASGSIFKGYAMGWYRQAPGKERELVAANTYSGGGTYYADSVKGRFTISRDNAKNTVYLQMKSLKQEDTAVYYCNADRYYPDDLSDGVGTYDYWGQGTQVSVSS", "polyreactivity (PSR sort gate)": "low polyreactivity"},
      {"sequence": "QVQLVESGGGLVQAGGSLRLSCAASGSIFKKNAMGWYRQEPGKERELVAAITRRGASTYYADSVKGRFTISRDNAKNNVYLQMNSLKREDTAVYYCAAPGKIGASFDNYYYWGQGTQVTVSS", "polyreactivity (PSR sort gate)": "high polyreactivity"},
      {"sequence": "QVQLVESGGGLVQAGGSLRLSCAASGSIFKKYAMGWYRQAPGKERELVAAIRSSGGSTYYADSVKGRFTISRDNAKNTVYLQMNSLKPEDTAVYYCAAYVPQGYKLYYWGQGTQVSVSS", "polyreactivity (PSR sort gate)": "high polyreactivity"},
      {"sequence": "QVQLVESGGGLVQAGGSLRLSCAASGSIFKKYAMGWYRQAPGKERELVAAISKSGGSTYYADSVKGRFTISRDNAKNTVYLQMNSLKPDDTAVYYCAAAAGGSAYWDYDYWGQGTQVTVSS", "polyreactivity (PSR sort gate)": "low polyreactivity"},
      {"sequence": "QVQLVESGGGLVQAGGSLRLSCAASGSIFKLYSMGWSRQAPGKERELVATIRWSGGSTYYADSVKGRFTISRDNAKNTVYLQMNSLKPEDTAVYYCAARRVRPNGYTSSPLDYWGQGTQVTVSS", "polyreactivity (PSR sort gate)": "high polyreactivity"},
      {"sequence": "QVQLVESGGGLVQAGGSLRLSCAASGSIFKPYAMGWYRQAPGKERELVAAISGIGGSTYYADSVKGRFTISRDNAKNTVYLQMNCLKPEDTAVYYCAADTFFKIFSEYNYWGQGTQVTVSS", "polyreactivity (PSR sort gate)": "high polyreactivity"},
      {"sequence": "QVQLVESGGGLVQAGGSLRLSCAASGSIFKPYAMGWYRQAPGKERELVAAISRSGSTYYADSVKGRFTISRDNAKNSVYLQMNSLKPEVTAVFYCAAETQARWRRYDYWGQGSQVTVSS", "polyreactivity (PSR sort gate)": "low polyreactivity"},
      {"sequence": "QVQLVESGGGLVQAGGSLRLSCAASGSIFKPYAMGWYRQAPGKERELVAVISSGGSTNYADSVKGRFTISRDNAKNTVYLQMNSLKPEDTAVYYCAAEDQYGYDYWGQGTQVTVSS", "polyreactivity (PSR sort gate)": "high polyreactivity"},
      {"sequence": "QVQLVESGGGLVQAGGSLRLSCAASGSIFKRNAMGWYRQAPGKERELVAAITGGGRTNYADSVKGRFTISRDNAKNTVYLQMNSLNPEDTAVYYCAADWYGVGLYYTWTRHDYWGQGTQVTVSS", "polyreactivity (PSR sort gate)": "low polyreactivity"},
      {"sequence": "QVQLVESGGGLVQAGGSLRLSCAASGSIFKRNAMGWYRQAPGKERELVAAITSSGGTTYYADSVKGRFTISRDNAKNTVYLQMNSLKPEDTAVYYCNAGYGVRSVRRFDYWGQGTQVTVSS", "polyreactivity (PSR sort gate)": "high polyreactivity"},
      {"sequence": "QVQLVESGGGLVQAGGSLRLSCAASGSIFKRYAMGWYRQAPGKERELVAAITYNGGSTYYADSVKGRFTISRDNAKNTVYLQMNSLKPEDTAVYYCAAERYNGYDYWGQGTQVTVSS", "polyreactivity (PSR sort gate)": "high polyreactivity"},
      {"sequence": "QVQLVESGGGLVQAGGSLRLSCAASGSIFKSNAMGWYRQAPGKERELVAAISNGGITNYADSVKGRFTISRDNAKNSVYLQMNSLKPEDTAVYYCATSDVREIWVDYWGQGTQVTVSS", "polyreactivity (PSR sort gate)": "low polyreactivity"},
      {"sequence": "QVQLVESGGGLVQAGGSLRLSCAASGSIFKSNGMGWYRQAPGKERELVAAITGSGGTTYYADSVKGRFTISRDNAKNTVYLQMNSLKPEDTAVYYCAADIYWYPTYYYWGQGTQVTVSS", "polyreactivity (PSR sort gate)": "low polyreactivity"},
      {"sequence": "QVQLVESGGGLVQAGGSLRLSCAASGSIFKVNVMGWYRQAPGKERELVAAISRSGGNTYYADSVKGRFTISRDNAKNTVYLQMNSLKPEDTAVYYCATGASYLRRYDHPHSDVDYWGQGTQVTVSS", "polyreactivity (PSR sort gate)": "low polyreactivity"},
      {"sequence": "QVQLVESGGGLVQAGGSLRLSCAASGSIFKVYAMGWYRQAPGKERELVAAITGSGGSTYYADSVKGRFTISRDNAKNTVYLQMNSLKPEDTAVYYCNTDYYYSGYFRRFDYWGQGTQVTVSS", "polyreactivity (PSR sort gate)": "high polyreactivity"},
      {"sequence": "QVQLVESGGGLVQAGGSLRLSCAASGSIFKWYAMGWYRQAPGKERALVATISSSGSSTYYADSVKGRLTISRDNAKNTVYLQMNSLKPEDTAVYYCATTYGWRYPAMDYWGQGTQVTVSS", "polyreactivity (PSR sort gate)": "high polyreactivity"},
      {"sequence": "QVQLVESGGGLVQAGGSLRLSCAASGSIFKWYAMGWYRQAPGKERELVASITWSGGSTYYADSVKGRFTISRDNAKNTVYLQMNSLKPEDTAVYYCNALSWVRGDYWGQGTQVTVSS", "polyreactivity (PSR sort gate)": "low polyreactivity"},
      {"sequence": "QVQLVESGGGLVQAGGSLRLSCAASGSIFKWYAMGWYRQAPGKERELVAVISSGGNTYYADSVKGRFTISRDNAKNTVYLQMNSLKPEDTAVYYCAARVTSHMYYWGQGTQVTVSS", "polyreactivity (PSR sort gate)": "high polyreactivity"},
      {"sequence": "QVQLVESGGGLVQAGGSLRLSCAASGSIFKYNAMGWYRPAPGKERELVAAISWSGGSTRYADSLKGRFTISRDNATNTGYLQMNSLKPEDTAVYYCAAKHGRNYAANALYGYWGQGTQVTVSS", "polyreactivity (PSR sort gate)": "high polyreactivity"},
      {"sequence": "QVQLVESGGGLVQAGGSLRLSCAASGSIFKYNAMGWYRQAPGKERQLVAAISSSGGYTSYADSVKGRFTISRDNAKNTVYLQMNSLKPEDTAVYYCNAPYLIYKKGRYDYWGQGTQVTVSS", "polyreactivity (PSR sort gate)": "high polyreactivity"},
      {"sequence": "QVQLVESGGGLVQAGGSLRLSCAASGSIFKYNPMGWDRQAPGKERELVAAITYRGASTYYADSVKGRFTISRDNAKNTVYLQMNSLKPEDTAVYYCNAKVRKSRFYYWGQGTQVTVSS", "polyreactivity (PSR sort gate)": "high polyreactivity"},
      {"sequence": "QVQLVESGGGLVQAGGSLRLSCAASGSIFKYYAMGWYRQAPGKERELVAAIDWSGGNTYADSVKGRFTISRDNAKNTVYLQMNSLKPEDTAVYYCNAPGFRRLWGFGYDYWGQGTQVTVSS", "polyreactivity (PSR sort gate)": "high polyreactivity"},
      {"sequence": "QVQLVESGGGLVQAGGSLRLSCAASGSIFKYYAMGWYRQAPGKERELVAAISTGGTTNYADSVKGRFTISRDNAKKTVYLQMNSLKPDDTAVYYCNRDFLVRSRYKYYYWGQGTQVTVSS", "polyreactivity (PSR sort gate)": "low polyreactivity"},
      {"sequence": "QVQLVESGGGLVQAGGSLRLSCAASGSIFKYYTIGWYRQAPGKERELVAAISWSGGRTYYADSVKGRFTISRDIAKNTVYLQMNSLKPEDTAVYYCAKYVSYSRTLYDYWGQGTKVTVSS", "polyreactivity (PSR sort gate)": "high polyreactivity"},
      {"sequence": "QVQLVESGGGLVQAGGSLRLSCAASGSIFKYYTMGWYRQAPGKEREFVAAITRSGGSTYYADSVKGRFTISRDNAKNTVYLQMNSLKPEDTAVYYCAARTIRDQTVRFGHWGQGTQVTVSS", "polyreactivity (PSR sort gate)": "high polyreactivity"},
      {"sequence": "QVQLVESGGGLVQAGGSLRLSCAASGSIFKYYTMGWYRQAPGKERELVAAISWRGGSTYYADSVKGRFTISRDNAKNTVYLQMNSLKPEDTAVYYCAAKSYYNYYYWGQGTQVTVSS", "polyreactivity (PSR sort gate)": "high polyreactivity"},
      {"sequence": "QVQLVESGGGLVQAGGSLRLSCAASGSIFKYYTRGWYRQAPGKERELVAAISGSGGTTYYADSVKGRFTISRDNAKNTVYLQMNSLKPEDTAVYYCATAYYRAFRGDYWGQGTQVTVSS", "polyreactivity (PSR sort gate)": "high polyreactivity"}
    ]}
  ]
}
